For assay [1], the target named is S protein of SARS-COV-2 (Sino Biologics) (SARS-CoV-2, UniProt P0DTC2 16-1213). Kind of assay: ELISA, S protein (Sino Biologics) coated, anti-human Fc HRP.
For assay [2], the target named is T1, RBD of SARS-CoV-2 spike protein S1 (recombinant, construct not stated) (SARS-CoV-2, UniProt P0DTC2 328-533).
T1 construct: also called SARS-COV-2, RBD; RBD-AF647
Kind of assay: SPR (Biacore T200), IgG captured on protein A chip, RBD injected. (In SPR one partner is held on a chip, and binding of the other changes the refractive index at the surface.)

Assay [3] deals with T2, RBD of SARS-COV (ACRO Biosciences) (SARS-COV, UniProt P59594 306-527).
T2 construct: domain: RBD; also called RBD-SARS; SARS-COV, RBD
Description: ELISA, SARS-COV RBD (ACRO) coated, anti-human Fc HRP. (ELISA stands for enzyme-linked immunosorbent assay.)

For assay [4], the target named is T3, S1 protein of SARS-CoV-2 (recombinant, construct not stated) (SARS-CoV-2, UniProt P0DTC2 16-685).
In assay [5] the target is T3, S1 protein of SARS-CoV-2 (recombinant, …). This is another data set of the same source.
Assay [6] has as its target T1, RBD of SARS-CoV-2 spike protein S1 …. Kind of assay: ELISA, RBD coated, IgG1 titrated, anti-human Fc HRP.
Assay [7] deals with T4, S1 protein of SARS-COV (ACRO Biosciences) (SARS-COV, UniProt P59594 14-667).
T4 construct: domain: S1
Description: SPR (Biacore T200), IgG captured on protein A chip, SARS-COV S1 injected.

Assay [8] addresses T4, S1 protein of SARS-COV (ACRO …). Description: ELISA, SARS-COV S1 (ACRO) coated, anti-human Fc HRP.
For assay [9], the target named is T3, S1 protein of SARS-CoV-2 (recombinant, …). Description: SPR (Biacore T200), IgG captured on protein A chip, S1 injected.
For assay [10], the target named is T2, RBD of SARS-COV (ACRO Biosciences). Description: SPR (Biacore T200), IgG captured on protein A chip, SARS-COV RBD injected.
The target in assay [11] is HIS tagged S1 of SARS-CoV-2 (SARS-CoV-2, UniProt P0DTC2 16-685).
The target of assay [12] is SARS-CoV-2-RBD (328-533)-His (SARS-CoV-2, UniProt P0DTC2 328-533).
The target of assay [13] is T3, S1 protein of SARS-CoV-2 (recombinant, …). Description: ELISA, S1 coated, IgG1 titrated, anti-human Fc HRP.
In assay [14] the target is T2, RBD of SARS-COV (ACRO Biosciences). Description: ELISA, SARS-COV RBD coated, IgG titrated, anti-human Fc HRP.
Assay [15] has as its target T4, S1 protein of SARS-COV (ACRO …). Kind of assay: ELISA, SARS-COV S1 coated, IgG titrated, anti-human Fc HRP.

Read-outs that look alike come from different tables or passages of the source.

B1: 2020EP54-E10 IgG1 (antibody, V domains shown)
VH: QVQLVQSGAEVRKPGSSVKVSCKASGGTFSSFAISWVRQAPGQGLEWMGGIIPIFDTATYAQNFQGRVRMTADESTNTAYMELSSLTSEDTAVYYCARSTSYYDSRGDYKVGDFDYWGQGTLVTVSS
VL: not shown
notes: also called 2020EP054-E10
One may read the EC50 as the concentration that produces a half-maximal response. A word on the Kd: it is a measure of binding affinity in units of concentration. As usually defined, the koff is the first-order rate constant of dissociation. A word on the kon: it is a measure of how fast the partners come together. A word on the IC50: it is the concentration needed to halve the response being measured. Regarding B1, the EC50 in assay [1] was 0.0846 nM; in assay [3], 0.035 nM; in assay [6], 0.08 nM; in assay [8], 0.027 nM; in assay [13], 0.084 nM. Also, the Kd in assay [2] is 0.131 nM; in assay [7] it was 57.1 nM; in assay [9], 1.15 nM; in assay [10], 3.69 nM; in assay [11], 2.3 nM; in [12], 0.554 nM. Further, the koff in assay [2] was found to be 0.00032 s⁻¹; in [7], 0.00433 s⁻¹; in assay [9] it was 0.000292 s⁻¹; in assay [10], 0.00675 s⁻¹; in assay [11], 0.000498 s⁻¹; in [12] it was 0.000807 s⁻¹. Further, the kon in [2] was 2.43e+06 M⁻¹ s⁻¹; in [7], 75800 M⁻¹ s⁻¹; in [9] it was 254000 M⁻¹ s⁻¹; in [10], 1.83e+06 M⁻¹ s⁻¹; in assay [11], 217000 M⁻¹ s⁻¹; in assay [12], 1.46e+06 M⁻¹ s⁻¹. For the same molecule, the half-inhibitory concentration (IC50) amounted to 0.774 nM in assay [4] and 2.71 nM in assay [5].

B2: 2020EP54-E12 IgG1 (antibody, V domains shown)
VH: EVQLVESGGGLVQPGGSLRLSCAVTGFIVSSNYMNWVRQAPGKGLEWVSVIYSGGTTYYADSVKGRFTISRDKSKNTLYLQMNNLRAEDTAMYYCATLGNDYGDYGTDYWGQGTLVTVSS
VL: QLVLTQPPSVSVSPGQTASISCSGDRLGQKYTSWYQQRPGQSPVLIMYQDNKRPSGIPERFSGSNSGNTATLTISGIQSMDEADYYCQVWDSGSDHAVFGGGTQLTVL
notes: also called 2020EP054-E12; EP054-E12, IgG1
As to B2, the EC50 was determined as 0.462 nM in assay [1], 0.053 nM in assay [6] and 0.103 nM in assay [13]. For the same molecule, the binding result in [14] and in assay [15] was “no binding (tested: 200 nM (highest concentration tested))” in each case. Moreover, the half-maximal inhibitory concentration (IC50) in assay [4] worked out at 3.79 nM; in assay [5] it was 1.9 nM.

These data come from patent US20230220053A1 (published 2023).
